Test results: patent US20160355590A1 (UNIVERSITY OF SOUTHERN CALIFORNIA, published 2016)
Blank lines part the entries; values can stand above or below the binder they belong to.

Tests used:
[1] = target: human HLA-DR (allele not stated), on cells (human); assay: Scatchard plot analysis, normal B cells against tumor cell line
[2] = target: human HLA-DR (allele not stated), on cells (human); assay: Scatchard plot analysis, avidity constant on tonsil lymphocytes
[3] = target: human HLA-DR (allele not stated), on cells (human); assay: Scatchard plot analysis, avidity constant on ARH-77 myeloma cells

fold decrease in binding affinity on normal B cells against tumor cells [1]: 4 fold
Ka [2]: 8.8e+07 M⁻¹
B1: Lym-1 monoclonal antibody (antibody, V domains shown)
VH: QLKESGPGLVAPSQSLSITCTISGFSLTSYGVHWVRQPPGKGLEWLVVIWSDGSTTYNSALKSRLSISKDNSKSQVFLKMNSLQTDDTAIYYCASHYGSTLAFASWGHGTLVTVSA
VL: DIQMTQSPASLSASVGETVTIICRASVNIYSYLAWYQQKQGKSPQLLVYNAKILAEGVPSRFSGSGSGTQFSLKINSLQPEDFGSYYCQHHYGTFTFGSGTKLEIK
notes: Mouse (BALB/c) hybridoma monoclonal antibody raised against Raji Burkitt's lymphoma cell nuclei; detected with goat anti-mouse IgG

Ka [3]: 2.33e+08 M⁻¹
fold decrease in binding affinity on normal B cells against tumor cells [1]: 2 fold
Ka [2]: 1.23e+08 M⁻¹
B2: Lym-2 monoclonal antibody (antibody, V domains shown)
VH: EVQLEESGGGLVQPGGSMKLSCVASGFTFSNYWMNWVRQSPEKGLEWVAEIRFKSHNYATHFAESVKGRFTISRDDSKSSVYLQMNNLRAEDTGIYYCTRRIGNSDYDWWYFDVWGAGTSVTVSS
VL: DIVMTQSHKFMSTSVGDRVSVTCKASQNVGNNVAWYQQKPGQSPKVLIYSASYRYSGVPDRFTGSGSGTDFTLTISNVQSEDLAEYFCQQYNTYPFTFGSGTKLEIK
notes: Mouse (BALB/c) hybridoma monoclonal antibody raised against CLL biopsy cell nuclei; detected with goat anti-mouse IgG
